In patent publication US20160120951A1 (ZEALAND PHARMA A S, published 2016):
Numbered stars: 1 amine (or outer) side, 2 acyl side, 3 side chain; on linkers, the order of the positions; unused ones are H or OH. Square brackets hold non-standard residues; d marks the D form. Side chains are listed from the residue outwards. Ends that are not written are not given here. * marks the point of attachment. γGlu = O=C(O)[C@H](CCC(=O)[*:2])N[*:1]; Palmitoyl = CCCCCCCCCCCCCCCC(=O)*; Aib = CC(C)(N)C(=O)O

B1: Compound 11 (peptide)
peptide: H-H[Aib]QGTFTSDYSKYLDSK([γGlu-Palmitoyl])AAHDFVEWLLRA-NH2
SMILES: CCCCCCCCCCCCCCCC(=O)N[C@@H](CCC(=O)NCCCC[C@H](NC(=O)[C@H](CO)NC(=O)[C@H](CC(=O)O)NC(=O)[C@H](CC(C)C)NC(=O)[C@H](Cc1ccc(O)cc1)NC(=O)[C@H](CCCCN)NC(=O)[C@H](CO)NC(=O)[C@H](Cc1ccc(O)cc1)NC(=O)[C@H](CC(=O)O)NC(=O)[C@H](CO)NC(=O)[C@@H](NC(=O)[C@H](Cc1ccccc1)NC(=O)[C@@H](NC(=O)CNC(=O)[C@H](CCC(N)=O)NC(=O)C(C)(C)NC(=O)[C@@H](N)Cc1c[nH]cn1)[C@@H](C)O)[C@@H](C)O)C(=O)N[C@@H](C)C(=O)N[C@@H](C)C(=O)N[C@@H](Cc1c[nH]cn1)C(=O)N[C@@H](CC(=O)O)C(=O)N[C@@H](Cc1ccccc1)C(=O)N[C@H](C(=O)N[C@@H](CCC(=O)O)C(=O)N[C@@H](Cc1c[nH]c2ccccc12)C(=O)N[C@@H](CC(C)C)C(=O)N[C@@H](CC(C)C)C(=O)N[C@@H](CCCNC(=N)N)C(=O)N[C@@H](C)C(N)=O)C(C)C)C(=O)O
B2: Compound 2 (peptide)
peptide: HSQGTFTSDYSKYLDK([γGlu-Palmitoyl])KAAHDFVEWLLRA-NH2
modifications: N-terminus assumed
SMILES: CCCCCCCCCCCCCCCC(=O)N[C@@H](CCC(=O)NCCCC[C@H](NC(=O)[C@H](CC(=O)O)NC(=O)[C@H](CC(C)C)NC(=O)[C@H](Cc1ccc(O)cc1)NC(=O)[C@H](CCCCN)NC(=O)[C@H](CO)NC(=O)[C@H](Cc1ccc(O)cc1)NC(=O)[C@H](CC(=O)O)NC(=O)[C@H](CO)NC(=O)[C@@H](NC(=O)[C@H](Cc1ccccc1)NC(=O)[C@@H](NC(=O)CNC(=O)[C@H](CCC(N)=O)NC(=O)[C@H](CO)NC(=O)[C@@H](N)Cc1c[nH]cn1)[C@@H](C)O)[C@@H](C)O)C(=O)N[C@@H](CCCCN)C(=O)N[C@@H](C)C(=O)N[C@@H](C)C(=O)N[C@@H](Cc1c[nH]cn1)C(=O)N[C@@H](CC(=O)O)C(=O)N[C@@H](Cc1ccccc1)C(=O)N[C@H](C(=O)N[C@@H](CCC(=O)O)C(=O)N[C@@H](Cc1c[nH]c2ccccc12)C(=O)N[C@@H](CC(C)C)C(=O)N[C@@H](CC(C)C)C(=O)N[C@@H](CCCNC(=N)N)C(=O)N[C@@H](C)C(N)=O)C(C)C)C(=O)O
B3: Compound 3 (peptide)
peptide: H-HSQGTFTSDYSKYLDSK([γGlu-Palmitoyl])AAHDFVEWLLRA-NH2
SMILES: CCCCCCCCCCCCCCCC(=O)N[C@@H](CCC(=O)NCCCC[C@H](NC(=O)[C@H](CO)NC(=O)[C@H](CC(=O)O)NC(=O)[C@H](CC(C)C)NC(=O)[C@H](Cc1ccc(O)cc1)NC(=O)[C@H](CCCCN)NC(=O)[C@H](CO)NC(=O)[C@H](Cc1ccc(O)cc1)NC(=O)[C@H](CC(=O)O)NC(=O)[C@H](CO)NC(=O)[C@@H](NC(=O)[C@H](Cc1ccccc1)NC(=O)[C@@H](NC(=O)CNC(=O)[C@H](CCC(N)=O)NC(=O)[C@H](CO)NC(=O)[C@@H](N)Cc1c[nH]cn1)[C@@H](C)O)[C@@H](C)O)C(=O)N[C@@H](C)C(=O)N[C@@H](C)C(=O)N[C@@H](Cc1c[nH]cn1)C(=O)N[C@@H](CC(=O)O)C(=O)N[C@@H](Cc1ccccc1)C(=O)N[C@H](C(=O)N[C@@H](CCC(=O)O)C(=O)N[C@@H](Cc1c[nH]c2ccccc12)C(=O)N[C@@H](CC(C)C)C(=O)N[C@@H](CC(C)C)C(=O)N[C@@H](CCCNC(=N)N)C(=O)N[C@@H](C)C(N)=O)C(C)C)C(=O)O
B4: Compound 4 (peptide)
peptide: H-HSQGTFTSDYSKYLDSKAAK([γGlu-Palmitoyl])DFVEWLLRA-NH2
SMILES: CCCCCCCCCCCCCCCC(=O)N[C@@H](CCC(=O)NCCCC[C@H](NC(=O)[C@H](C)NC(=O)[C@H](C)NC(=O)[C@H](CCCCN)NC(=O)[C@H](CO)NC(=O)[C@H](CC(=O)O)NC(=O)[C@H](CC(C)C)NC(=O)[C@H](Cc1ccc(O)cc1)NC(=O)[C@H](CCCCN)NC(=O)[C@H](CO)NC(=O)[C@H](Cc1ccc(O)cc1)NC(=O)[C@H](CC(=O)O)NC(=O)[C@H](CO)NC(=O)[C@@H](NC(=O)[C@H](Cc1ccccc1)NC(=O)[C@@H](NC(=O)CNC(=O)[C@H](CCC(N)=O)NC(=O)[C@H](CO)NC(=O)[C@@H](N)Cc1c[nH]cn1)[C@@H](C)O)[C@@H](C)O)C(=O)N[C@@H](CC(=O)O)C(=O)N[C@@H](Cc1ccccc1)C(=O)N[C@H](C(=O)N[C@@H](CCC(=O)O)C(=O)N[C@@H](Cc1c[nH]c2ccccc12)C(=O)N[C@@H](CC(C)C)C(=O)N[C@@H](CC(C)C)C(=O)N[C@@H](CCCNC(=N)N)C(=O)N[C@@H](C)C(N)=O)C(C)C)C(=O)O

These binders were tested against T1, human glucagon receptor (Glucagon-R) (human, UniProt P47871 26-477) (assay: cell-based or functional assay).

GluR EC50 (nM) (1), cAMP formation in primary human hepatocytes	GluR EC50 (nM) (2), cAMP formation in primary human hepatocytes	GluR EC50 (nM) (log avg), cAMP formation in primary human hepatocytes	Binder
32.9 nM	25.5 nM	28.9 nM	B1
1.4 nM	2.2 nM	1.8 nM	H-HSQGTFTSDYSKYLDSKAAHDFVEWLLRA-NH2 [Compound 1]

Biological target: T1, human glucagon receptor (Glucagon-R)
Assay: cell-based or functional assay
Remark: another data set of the same source

EC50 (nM) GluR, cAMP formation	Binder
0.16 nM	B1
0.13 nM	B2
0.12 nM	B3
0.06 nM	H-HSQGTFTSDYSKYLDSKAAHDFVEWLLRA-NH2 [Compound 1]
0.04 nM	B4
0.39 nM	HXQGTFTSDYSKYLDSKAAHDFVEWLLSA (Aib at position 2; K(Hexadecanoyl-ε-Lys) at position 17; C-terminal amide (NH2)) [Compound 17]

The binders below were run against human glucagon-like peptide 1 receptor (GLP-1R) (human, UniProt P43220 24-463) (assay: cell-based or functional assay).
human glucagon-like peptide 1 receptor (GLP-1R), sequence (P43220 24-463): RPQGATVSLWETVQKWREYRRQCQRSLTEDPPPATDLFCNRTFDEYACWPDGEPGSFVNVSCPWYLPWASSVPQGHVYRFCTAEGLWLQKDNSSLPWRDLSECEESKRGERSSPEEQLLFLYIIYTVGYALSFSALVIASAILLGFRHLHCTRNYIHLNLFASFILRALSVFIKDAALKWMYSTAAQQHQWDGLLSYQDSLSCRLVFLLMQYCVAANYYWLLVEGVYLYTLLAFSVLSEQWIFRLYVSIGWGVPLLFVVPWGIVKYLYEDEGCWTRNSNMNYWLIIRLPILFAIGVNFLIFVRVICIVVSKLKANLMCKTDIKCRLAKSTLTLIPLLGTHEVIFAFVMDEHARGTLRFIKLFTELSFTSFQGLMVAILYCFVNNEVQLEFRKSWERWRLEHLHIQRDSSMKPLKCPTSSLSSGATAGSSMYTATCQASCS

EC50 (nM) GLP-1R, cAMP formation	Binder
0.09 nM	B1
0.2 nM	B2
0.11 nM	B3
0.06 nM	H-HSQGTFTSDYSKYLDSKAAHDFVEWLLRA-NH2 [Compound 1]
0.1 nM	B4
0.09 nM	HXQGTFTSDYSKYLDSKAAHDFVEWLLSA (Aib at position 2; K(Hexadecanoyl-ε-Lys) at position 17; C-terminal amide (NH2)) [Compound 17]
